Assay [1] relates to normal human melanocytes. The assay can be described thus: Flow cytometry of normal human melanocytes and SK-MEL-5 cells. The class given is binding. As to conditions: intensity comparable to SK-MEL-5. The text has this: Normal human melanocytes and SK-MEL-5 melanoma cells were reacted with chimeric 17A9, or no primary antibody, followed by Alexa 488-labeled anti-human IgG and analyzed by flow cytometry.

The subject of assay [2] is human PMEL17. Kind of assay: FACS screening of anti-PMEL17 hybridoma antibodies on live cells. The class given is binding. As to conditions: parental PC3 cell line.
Assay [3] deals with T1, human PMEL17 (Homo sapiens, UniProt P40967).
T1 construct: endogenous in cells; host or cells: SK-MEL-23, 1300mel, SKMEL5 (ATCC HTB-70), UACC257, normal melanocytes (Invitrogen); also PC3 stably expressing human PMEL17
T1 sequence (P40967 25-469): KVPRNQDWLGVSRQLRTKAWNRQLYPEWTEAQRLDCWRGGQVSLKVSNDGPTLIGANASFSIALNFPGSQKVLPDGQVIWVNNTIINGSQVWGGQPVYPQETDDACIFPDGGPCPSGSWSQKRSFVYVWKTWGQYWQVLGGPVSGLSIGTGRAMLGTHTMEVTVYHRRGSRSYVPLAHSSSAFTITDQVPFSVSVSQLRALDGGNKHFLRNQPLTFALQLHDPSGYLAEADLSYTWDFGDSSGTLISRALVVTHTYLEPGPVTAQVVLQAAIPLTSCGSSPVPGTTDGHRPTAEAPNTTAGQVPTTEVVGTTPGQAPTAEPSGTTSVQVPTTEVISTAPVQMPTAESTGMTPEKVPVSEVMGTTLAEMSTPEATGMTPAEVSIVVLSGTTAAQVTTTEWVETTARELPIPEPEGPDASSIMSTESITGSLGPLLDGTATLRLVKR
T1 sequence (P40967 470-661): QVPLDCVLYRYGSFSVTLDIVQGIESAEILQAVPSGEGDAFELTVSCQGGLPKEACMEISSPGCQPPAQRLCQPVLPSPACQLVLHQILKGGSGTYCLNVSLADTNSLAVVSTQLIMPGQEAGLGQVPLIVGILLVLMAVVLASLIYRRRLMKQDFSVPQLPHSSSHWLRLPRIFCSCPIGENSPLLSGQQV
The description is as above. The class given is binding. As to conditions: live melanoma cells, normal human melanocytes, PC3 cell line stably expressing PMEL17 cDNA.

Assay [4] concerns normal human melanocytes. The assay can be described thus: Toxicity of anti-PMEL17 ADC in normal melanocytes (CellTiter-GloII, five days). The class given is cell-based. As to conditions: versus SK-MEL-5 and SK-MEL-23, five days. How it is done: Finally, SK-MEL-5 and SK-MEL-23 melanoma cells, or normal human melanocytes, were incubated with serial dilutions of the 17A9 ADC and five days later cell numbers were determined using CellTiter-GloII.
In general terms: ATP-based viability assays read luminescence as a measure of living cells.

The test system of assay [5] is cynomolgus monkey PMEL17. Kind of assay: Species cross-reactivity by FACS, 293S cells stably transfected with gD tagged PMEL17. The class given is binding. As to conditions: 10 μg/ml antibody. Here is the method:
(§1) Antibody 17A9 was tested to determine if it cross-reacts with PMEL17 from species other than human. […] All of the sequences include the signal sequence except for the cynomolgus monkey PMEL17. Residues that are identical among all four species are indicated by asterisks (*). In the region where the rat sequence has a deletion, residues that are identical among the remaining three species are indicated by a plus (+). Binding to each species of PMEL17 was determined by FACS analysis using 293S cells stably transfected with an N-terminal gD tagged PMEL17 (human, cynomolgus monkey, rat, or mouse PMEL17); stained with 10 μg/ml 17A9 antibody; and detected with R-Phycoerythrin conjugated goat anti-mouse antibody.
Background: Flow cytometry measures light scatter and fluorescence of single cells or particles in a stream.

Assay [6] deals with T2, mouse PMEL17 (Mus musculus, UniProt Q60696).
T2 construct: gD tag (N); expressed in transfected cells
T2 sequence (Q60696 24-626): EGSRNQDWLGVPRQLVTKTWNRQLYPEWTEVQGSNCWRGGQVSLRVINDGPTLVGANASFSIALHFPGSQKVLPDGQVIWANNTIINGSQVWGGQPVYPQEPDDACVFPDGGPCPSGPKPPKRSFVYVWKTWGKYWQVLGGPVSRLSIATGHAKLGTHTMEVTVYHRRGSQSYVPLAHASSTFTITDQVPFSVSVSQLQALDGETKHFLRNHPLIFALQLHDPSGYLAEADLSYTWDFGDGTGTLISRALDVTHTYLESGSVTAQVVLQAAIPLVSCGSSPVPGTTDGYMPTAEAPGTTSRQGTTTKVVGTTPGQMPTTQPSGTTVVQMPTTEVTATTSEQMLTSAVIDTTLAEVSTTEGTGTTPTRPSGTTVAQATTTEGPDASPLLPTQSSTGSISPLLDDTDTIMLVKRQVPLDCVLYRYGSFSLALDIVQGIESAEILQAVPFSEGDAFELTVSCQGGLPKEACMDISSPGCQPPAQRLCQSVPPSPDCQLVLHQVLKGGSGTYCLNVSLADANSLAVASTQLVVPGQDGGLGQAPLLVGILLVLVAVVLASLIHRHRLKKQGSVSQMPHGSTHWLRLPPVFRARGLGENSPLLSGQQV
The assay is described as above. As to conditions: 10 μg/ml antibody. The class given is binding. How it is done: as §1

In assay [7] the test system is rat PMEL17. The assay is described as above. As to conditions: 10 μg/ml antibody. The class given is binding. How it is done: as §1
Assay [8] deals with 1300mel melanoma cells. The assay can be described thus: Internalization of anti-PMEL17 antibody, co-staining with lysosomal marker LAMP1. The class given is cell-based.

Chain of cynomolgus monkey PMEL17 (as listed by the source): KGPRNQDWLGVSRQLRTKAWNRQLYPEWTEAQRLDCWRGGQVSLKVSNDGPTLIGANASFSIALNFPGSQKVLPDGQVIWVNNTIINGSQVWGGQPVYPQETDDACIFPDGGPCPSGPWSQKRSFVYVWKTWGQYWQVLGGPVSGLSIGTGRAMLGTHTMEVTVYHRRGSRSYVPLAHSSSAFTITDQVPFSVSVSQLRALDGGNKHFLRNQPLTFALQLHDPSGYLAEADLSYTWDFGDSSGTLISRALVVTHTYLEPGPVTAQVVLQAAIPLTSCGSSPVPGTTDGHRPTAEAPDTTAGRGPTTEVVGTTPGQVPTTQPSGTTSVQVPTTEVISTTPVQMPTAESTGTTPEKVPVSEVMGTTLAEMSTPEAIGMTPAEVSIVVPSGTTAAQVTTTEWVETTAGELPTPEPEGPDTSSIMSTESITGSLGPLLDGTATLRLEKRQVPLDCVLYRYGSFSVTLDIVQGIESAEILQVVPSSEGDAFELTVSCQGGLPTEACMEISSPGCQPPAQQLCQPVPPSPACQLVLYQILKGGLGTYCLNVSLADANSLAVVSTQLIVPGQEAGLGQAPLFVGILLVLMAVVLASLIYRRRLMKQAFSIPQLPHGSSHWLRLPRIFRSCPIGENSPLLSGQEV

B1: 17A9 (antibody, listed as Mus musculus, V domains shown)
VH: EVQLQQSGPELVKPGASMKISCKSSGYSFTRYTMNWVKQSHGKNLEWIGVINPYNGGTVYNQKFKGKATLTVDKSSSTAYMELLSLTSEDSAVYYCARTDYDGYAMDYWGQGTSVTVSS
VL: DVQITQSPSYLAASPGETITINCRATKSISKYLAWYQEQPGKTNNLLIYSGSTLQSGIPSRFSGSGSGTDFTLTISSLEPEDFAMYYCQQHNEYPYTFGSGTKLEIK
For the molecule B1, the “FACS staining of cultured normal human melanocytes” value in assay [1] is recorded as “FACS+”. Also, the “FACS reactivity with parental PC3 cell line” value in assay [2] is “not the parental PC3 cell line”. In assay [3], the “FACS reactivity with live cells expressing PMEL17” value is reported as “reacted strongly”. For the same molecule, in assay [4], the “IC50 on normal melanocytes relative to melanoma cell lines” value was approximately 100 fold. Moreover, in assay [5], the “binding to cynomolgus monkey PMEL17 by FACS” value is reported as “bind”. Besides, the “binding to mouse PMEL17 by FACS” value in assay [6] is recorded as “bind”. Besides, the “binding to rat PMEL17 by FACS” value in assay [7] is listed as “bind”. Also, the “overlap of antibody and LAMP1 staining within the cells” value in assay [8] (2 μg/ml, 2 hours or 20 hours, 37° C.) is “considerable overlap”. The “uptake into additional PMEL17+ melanoma cell lines” value in assay [8] (526mel, SK-MEL-5, UACC257) is recorded as “Rapid uptake”.

Values taken from patent US10196454B2, “Anti-PMEL17 antibodies and immunoconjugates” (GENENTECH, INC., priority 2012, dated 2019).
